Series [1] deals with the molecule itself. The series can be described thus: native gel or EMSA; native-PAGE on ice (4% stacking, 17% separating gel, Tris-Gly pH 8.8); samples equilibrated overnight in 10 mM PB pH 7.2, 100 mM NaCl. In general terms: Mobility shift assays separate free from complexed probe on a gel.
Series [2] deals with the molecule itself. The series can be described thus: SEC; freshly purified protein, 20 mM sodium phosphate, 100 mM NaCl, pH 8.0; superdex 200, 4°C. Background: SEC sorts molecules by how far they enter the pores of the column.

B1: wild type TMV CP (tobacco mosaic virus coat protein) (natural protein)
chain: SYSITTPSQFVFLSSAWADPIELINLCTNALGNQFQTQQARTVVQRQFSEVWKPSPQVTVRFPDSDFKVYRYNAVLDPLVTALLGAFDTRNRIIEVENQANPTTAETLDATRRVDDATVAIRSAINNLIVELIRGTGSYNRSSFESSSGLVWTSGPAT
notes: also called WT TMV CP; wild TMV CP
For B1, the binding result in series [1] is “binds”.

B2: N-His-TMV CP^19 (tobacco mosaic virus coat protein, N-terminal six-His tag, C-terminal residues 155-158 truncated) (domain or fragment)
chain: SYSITTPSQFVFLSSAWADPIELINLCTNALGNQFQTQQARTVVQRQFSEVWKPSPQVTVRFPDSDFKVYRYNAVLDPLVTALLGAFDTRNRIIEVENQANPTTAETLDATRRVDDATVAIRSAINNLIVELIRGTGSYNRSSFESSSGLVWTS
notes: Tobacco mosaic virus (common strain) coat protein, residues 1-154; Gly155, Pro156, Ala157 and Thr158 deleted at the C-terminus; no tag cleavage is described; Oligomeric state depends on buffer: monomer and dimer, 20S, disks, four-layer aggregate, rods; also called genetically engineered TMV CP; truncated TMV CP; source: E. coli BL21 (DE3) RIL, purified (HisTrap, gel filtration on superdex 200); …
Take B2: in series [2], the “stoichiometry N” value stood at 2.

In general, stoichiometry N refers to the number of molecules, sites or subunits per partner or assembly.

Source of the values: PMC3817195, “Crystal Structure of a Four-Layer Aggregate of Engineered TMV CP Implies the Importance of Terminal Residues for Oligomer Assembly” (PLoS ONE, 2013).
